Measurements from US11994512B2, “Single-cell genomic methods to generate ex vivo cell systems that recapitulate in vivo biology with improved fidelity” (Massachusetts Institute of Technology, priority 2018, dated 2024).

B1: Q5HZI2 (protein, UniProt Q5HZI2 1-419, looked up)
chain: MRKTNMWFLERLRGSGENGASRGEAGDKSSKGPLYSNVLTPDKIPDFFIPPKLPSGPTEAEGQADLGPSTSEQNLASPGPRRAPRSPRLPAKLASESRSLLKAATRHVIQIESAEDWTAEEATNADPQAQGAMSLPSVPKAQTSYGFATLAESPHTRRKESLFHSEHGALAQVGSPGAGRRRAGAKGNGGDGGSREVGGALMSPSRYFSGGESDTGSSAESSPFGSPLLSRSVSLLKGFAQDSQAKVSQLKQSVGRHGSLSADDSTPDTSPGVRRRLSRRATPEPGPESGQAPRGEHTVKMGTRGSVRLLAEYEAAQARLRVRLLAAEGLYDRPCDARSINCCVGLCLVPGKLQKQRSTIIKNSRHPIFNEDFFFDGLGPASVRKLALRIKVVNKGSSLKRDTLLGEEELPLTSLLPFL
modifications: full-length
B2: Q5DQR4 (protein, UniProt Q5DQR4 1-1185, looked up)
chain: MKKFNFRKVLDGLTASSPGSGSSSGSNSGGAGSGSVHPGGTAGLPREEIQESLTSDYFQICKTVRHGFPYQPTALAFDPVQKILAIGTRTGAIRILGRPGVDCYCQHESGAAVLQLQFLINEGALVSASSDDTLHLWNLRQKRPAILHSLKFNRERITYCHLPFQSKWLYVGTERGNTHIVNIESFILSGYVIMWNKAIELSTKTHPGPVVHLSDSPRDEGKLLIGYENGTVVFWDLKSKRAELRVYYDEAIHSIDWHHEGKQFMCSHSDGSLTLWNLKSPSRPFQTTVPHGKSQREGRKSESCKPILKVEYKTCRNSEPFIIFSGGLSYDKACRRPSLTIMHGKAITVLEMDHPIVEFLTLCETPYPNEFQEPYAVAVLLEKDLIVVDLTQTNFPIFENPYPMDIHESPVTCTAYFADCPPDLILVLYSIGVKHKKQGYSNKEWPVSGGAWNLGAQTYPEIIITGHADGTIKFWDASAMTLQMLYKLKTSKVFEKQKAGEGKQTCELVEEDPFAVQMIYWCPESRIFCVSGVSAYVIIYKFSRHEVTTEIVSLEVRLQCDVEDIITPEPETSPPFPDLSSQLPPSRSLSGSTNTVSSEGVTKDSIPCLSVKTRPVRMPPGYQADLVIQLVWVDGEPPQQITSLSISSAYGIVAFGNCTGLVVVDFIQKTVLLSMGTIDLYRSSDLYQRQPRSPRKNRQFIADNFCMRGLSNFYPDLTKRIRTSYQSLTELNDSPVPLELERCKSPTSDHVNGHCTSPTSQSCSSGKRLSSADVSKVNRWGPGRPPFRKAQSAACMEISLPVTTEETRENSYNRSRSSSISSIDKDSKEAITALYFMESFARKNDSTVSPCLFVGTSLGMVVLISLNLPSSDEQRFTEPVVVLPSGTFLSLKGAVLTFSCMDRTGSLMQPPYEVWRDPNNTDENEKTWKRKLVMNYSSSSQEMGDHQYTIICSEKQAKVFSLPSQTCLYVHNITETSFILQADVVVMCNSACLACFCANGHIMIMSLPSLRPMLDVNYLPLTDMRIARTFCFTNEGQALYLVSPTEIQRLTYSQEMCDNIQDMLGDLFTPIETPEAQNRGFLKGLFGGSGQTFDREELFGEASAGKASRSLAQHIPGPGSIEGMKGAAGGVMGELTRARIALDERGQRLGELEEKTAGMMTSAEAFSKHAHELMLKYKDKKWYQF
modifications: full-length
B3: Q60673 (protein, UniProt Q60673 1-979, looked up)
chain: MRRPRRPGGSGGSGGSGGLRLLVCLLLLSGRPGGCSAISAHGCLFDRRLCSHLEVCIQDGLFGQCQAGVGQARPLLQVTSPVLQRLQGVLRQLMSQGLSWHDDLTQHVISQEMERIPRLRPPEPHPRDRSGLVPRKPGPAGELLTQGNPTGSSPAAQGFPRPAGGRSWGGSPLSSLQAELLPPLLEHLLMPPQPPHPALTYEPALLQPYLFHQFGSRDGSRGSESSSGVVGVGHLSKAEGPALFSRSASKAILGTHSGHSFGDLTGPSPAQLFQDSGLLYMAQELPVPGRARAPRLPENGGNRAEDSSEGHEEEVLGGRGEKSPPQAAQPELSLQRLTAVLAGYGVELRQLTPEQFSTLLTLLQLLPKGTGRNLEGAVNVGGADVKKTIQQMQRGDPAEALPPTPSLPGYLTASPASSEVQQVLSPGFPEPPHTPSPLGSSSVLLEKKSPLGQSQPTVVGRPSARPSAEEYGYIVTDQKPLSLVAGVRLLEILAEHVHMSSGSFINISVVGPAVTFRIRHNEQNLSLADVTQQAGLVKSELEAQTGLQILQTGVGQREEAAEVLPRQAHGISPMRSVLLTLVALAGVAGLLVALAVALCMRHHSRQRDKERLAALGPEGAHGDTTFEYQDLCRQHMATKSLFNRAEGQPEPSRVSSVSSQFSDAAQASPSSHSSTPSWCEEPAQANMDISTGHMILAYMEDHLRNRDRLAKEWQALCAYQAEPNTCAAAQDESNIKKNRHPDFLPYDHARIKLKVESSPSRSDYINASPIIEHDPRMPAYIATQGPLSHTIADFWQMVWESGCTVIVMLTPLVEDGVKQCDRYWPDEGSSLYHVYEVNLVSEHIWCEDFLVRSFYLKNLQTQETRTLTQFHFLSWPAEGTPASTRPLLDFRRKVNKCYRGRSCPIIVHCSDGAGRTGTYILIDMVLNRMAKGVKEIDIAATLEHVRDQRPGLVRSKDQFEFALTAVAEEVNAILKALPQ
modifications: full-length
B4: Q571E4 (protein, UniProt Q571E4 1-520, looked up)
chain: MAACTAAQQLLLVLSALGLLAAGAPQPPNIVLLLMDDMGWGDLGVNGEPSRETPNLDRMAAEGMLFPSFYSANPLCSPSRAALLTGRLPIRNGFYTTNAHARNAYTPQEIMGGIPNSEHLLPELLKKAGYTNKIVGKWHLGHRPQFHPLKHGFDEWFGSPNCHFGPYDNKAKPNIPVYRDWEMVGRFYEEFPINRKTGEANLTQLYTQEALDFIQTQHARQSPFFLYWAIDATHAPVYASRQFLGTSLRGRYGDAVREIDDSVGKILSLLQNLGISKNTFVFFTSDNGAALISAPNEGGSNGPFLCGKQTTFEGGMREPAIAWWPGHIAAGQVSHQLGSIMDLFTTSLSLAGLKPPSDRVIDGLDLLPTMLKGQMMDRPIFYYRGNTLMAVTLGQYKAHLWTWTNSWEEFTQGTDFCPGQNVSGVTTHTQEEHTELPLIFHLGRDPGERFPLSFHSDEYQDALSRTTQVVQEHQKSLVPGQPQLNVCNQAVMNWAPPGCEKLGKCLTPPESVPEKCFWAH
modifications: full-length
B5: Q60604 (protein, UniProt Q60604 1-715, looked up)
chain: MAQELQHPEFARAGQQAGLQVWRVEKLELVPVPQGAYGDFYVGDAYLVLHTTKSSRGFSYRLHFWLGKECSQDESTAAAIFTVQMDDYLGGKPVQSRELQGYESTDFVGYFKGGLKYKAGGVASGLNHVLTNDLTAKRLLHVKGRRVVRATEVPLSWESFNKGDCFIIDLGTEIYQWCGSSCNKYERLKASQVAIGIRDNERKGRSQLIVVEEGSEPSELMKVLGRKPELPDGDNDDDVVADISNRKMAKLYMVSDASGSMKVTLVAEENPFSMGMLLSEECFILDHGAAKQIFVWKGKNANPQERKTAMKTAEEFLQKMKYSTNTQIQVLPEGGETPIFKQFFKDWKDKDQSDGFGKVYITEKVAQIKQIPFDASKLHSSPQMAAQHNMVDDGSGGVEIWRVENSGRVQIDPSSYGEFYGGDCYIILYTYPRGQIIYTWQGANATRDELTMSAFLTVQLDRSLGGQAVQVRVSQGKEPAHLLSLFKDKPLIIYKNGTSKKEGQAPAPPTRLFQVRRNLASITRIVEVDVDANSLNSNDTFVLKLPRNNGFIWIGKGASQEEEKGAEYVADVLKCKASRIQEGKEPEEFWNSLGGRGDYQTSPLLETRAEDHPPRLYGCSNKTGRFIIEEVPGEFTQDDLAEDDVMLLDAWEQIFIWIGKDANEVEKKESVKSAKMYLETDPSGRDKRTPIVIIKQGHEPPTFTGWFLGWDSSRW
modifications: full-length
B6: Q52KI8 (protein, UniProt Q52KI8 1-946, looked up)
chain: MDAGFFRGTSAEQDNRFSNKQKKLLKQLKFAECLEKKVDMSKVNLEVIKPWITKRVTEILGFEDDVVIEFIFNQLEVKNPDSKMMQINLTGFLNGKNAREFMGELWPLLLSAQENIAGIPSAFLELKKEEIKQRQIEQEKLASLKKQDEDKDKRDKEEKESSREKRERSRSPRRRKSRSPSPRRRSSPVRRERKRSHSRSPRHRTKSRSPSPAPEKKEKSPELPEPSVRMKDSSVQEATSTSDILKAPKPEPVPEPKEPSPEKNSKKEKEKTRPRSRSRSKSRSRTRSRSPSHTRPRRRHRSRSRSYSPRRRPSPRRRPSPRRRTPPRRMPPPPRHRRSRSPGRRRRRSSASLSGSSSSSSSSRSRSPPKKPPKRTSSPPRKTRRLSPSASPPRRRHRPSSPATPPPKTRHSPTPQQSNRTRKSRVSVSPGRTSGKVTKHKGTEKRESPSPAPKPRKVELSESEEDKGSKMAAADSVQQRRQYRRQNQQSSSDSGSSSTSEDERPKRSHVKNGEVGRRRRHSPSRSASPSPRKRQKETSPRMQMGKRWQSPVTKSSRRRRSPSPPPARRRRSPSPAPPPPPPPPPPRRRRSPTPPPRRRTPSPPPRRRSPSPRRYSPPIQRRYSPSPPPKRRTASPPPPPKRRASPSPPPKRRVSHSPPPKQRSPTVTKRRSPSLSSKHRKGSSPGRSTREARSPQPNKRHSPSPRPRAPQTSSPPPVRRGASASPQGRQSPSPSTRPIRRVSRTPEPKKIKKTAMATQRNIRRVSKSPKADSLSRAASPSPQSVRRVSSSRSVSGSPEPAAKKPPAPPSPVQSQSPSTNWSPAVPAKKAKSPTPSLSPARNSDQEGGGKKKKKKKDKKHKKDKKHKKHKKHKKEKAVTIATPATAAPAAVSAATTTSAQEEPAAAPEPRKETESEAEDDNLDDLERHLREKALRSMRKAQVSPQS
modifications: full-length

Tested on: intracellular proteome of ENR+CD and ENR organoids
Experiment: LC-MS/MS TMT proteomics of ENR+CD versus ENR organoids
Assay type: cell-based, C57BL/6 mice
Settings: for Average logFC: ENR+CD versus ENR organoids, sample pairs in aggregate (n=4, 2 technical replicates from two biological donors); for M1-1 Log2 Median Normalized / M1-2 Log2 Median Normalized / M2-1 Log2 Median Normalized / M2-2 Log2 Median Normalized: protein abundance ratio ENR+CD versus ENR organoids, LC-MS/MS TMT proteomics; for M1-1 Log2 Median Normalized: sample pair M1-1; for M1-2 Log2 Median Normalized: sample pair M1-2; for M2-1 Log2 Median Normalized: sample pair M2-1; for M2-2 Log2 Median Normalized: sample pair M2-2; for change: up = enriched in ENR+CD, down = enriched in ENR, FDR<0.05 and log fold change cut-off

| Molecule | Average logFC | M1-1 Log2 Median Normalized | M1-2 Log2 Median Normalized | M2-1 Log2 Median Normalized | M2-2 Log2 Median Normalized | change |
| --- | --- | --- | --- | --- | --- | --- |
| B1 | 1.158 | 0.822 | 0.518 | 1.5305 | 1.762 | up |
| B2 | 1.147 | 1.316 | 0.966 | 1.1715 | 1.133 | up |
| B3 | 1.189 | 1.189 | 1.249 | 0.8005 | 1.265 | up |
| B4 | 1.207 | 1.473 | 0.565 | 1.3465 | 1.206 | up |
| B5 | −1.3 | −1.236 | −2.062 | −1.8295 | −0.073 | down |
| B6 | −1.144 | −1.036 | −0.819 | −1.2825 | −1.437 | down |
